Experimental data reported in US20180230213A1 (AVEO PHARMACEUTICALS, published 2018).

What was measured:
Assay in all cases: BLI (Octet QK): rhNotch3 on the sensor, IgG in place of a Notch3 antibody, then the ligand in solution
[1] = molecular target: T1, rhJag1-Fc (human, UniProt P78504 32-1046, limits assumed)
T1 construct: also called R&D Cat. No. 1277-JG-050
Procedure: (§1) The 4F11 antibody was tested for its ability to inhibit the binding of rhNotch3 binding to human Jag1, Jag2, DLL1 and DLL4. Binding measurements were made by bio-layer interferometry (BLI), using a FortéBio Octet® QK instrument (ForteBio, Menlo Park, Calif.). The ligands tested were rhJag1-Fc (R&D Cat. No. 1277-JG-050), rhJag2-Fc (R&D Cat. No. 1726-JG-050), rhDLL1-Fc (R&D Cat. No. 5026-DL-050), and His tagged rhDLL4 (R&D Cat. No. 1506-D4-050).
(§2) To determine the degree of inhibition of Notch3-ligand binding by antibody 4F11, the Octet sensors were loaded with recombinant human Notch3, and the antibody was allowed to bind, as described in Example 4. In positive control samples, a commercially available Notch3 polyclonal antibody capable of blocking ligand binding to recombinant human Notch3 (Notch3 Specific Control) was used instead of the 4F11 antibody. Then sensors were immersed in 500 ug/ml human IgG, to block non-specific binding. Ligands were prepared at a concentration of 400 nM in PBS containing 3% BSA, and were allowed to bind. The on-rate and off-rate for ligand binding were detected using the Octet QK instrument and software. The 4F11 antibody blocked binding of all four ligands to rhNotch3-Fc (FIG. 5A-5D).

[2] = molecular target: T2, rhJag2-Fc (human, UniProt Q9Y219 27-1080, limits assumed)
T2 construct: also called R&D Cat. No. 1726-JG-050
T2 sequence (Q9Y219 27-1080 limits assumed): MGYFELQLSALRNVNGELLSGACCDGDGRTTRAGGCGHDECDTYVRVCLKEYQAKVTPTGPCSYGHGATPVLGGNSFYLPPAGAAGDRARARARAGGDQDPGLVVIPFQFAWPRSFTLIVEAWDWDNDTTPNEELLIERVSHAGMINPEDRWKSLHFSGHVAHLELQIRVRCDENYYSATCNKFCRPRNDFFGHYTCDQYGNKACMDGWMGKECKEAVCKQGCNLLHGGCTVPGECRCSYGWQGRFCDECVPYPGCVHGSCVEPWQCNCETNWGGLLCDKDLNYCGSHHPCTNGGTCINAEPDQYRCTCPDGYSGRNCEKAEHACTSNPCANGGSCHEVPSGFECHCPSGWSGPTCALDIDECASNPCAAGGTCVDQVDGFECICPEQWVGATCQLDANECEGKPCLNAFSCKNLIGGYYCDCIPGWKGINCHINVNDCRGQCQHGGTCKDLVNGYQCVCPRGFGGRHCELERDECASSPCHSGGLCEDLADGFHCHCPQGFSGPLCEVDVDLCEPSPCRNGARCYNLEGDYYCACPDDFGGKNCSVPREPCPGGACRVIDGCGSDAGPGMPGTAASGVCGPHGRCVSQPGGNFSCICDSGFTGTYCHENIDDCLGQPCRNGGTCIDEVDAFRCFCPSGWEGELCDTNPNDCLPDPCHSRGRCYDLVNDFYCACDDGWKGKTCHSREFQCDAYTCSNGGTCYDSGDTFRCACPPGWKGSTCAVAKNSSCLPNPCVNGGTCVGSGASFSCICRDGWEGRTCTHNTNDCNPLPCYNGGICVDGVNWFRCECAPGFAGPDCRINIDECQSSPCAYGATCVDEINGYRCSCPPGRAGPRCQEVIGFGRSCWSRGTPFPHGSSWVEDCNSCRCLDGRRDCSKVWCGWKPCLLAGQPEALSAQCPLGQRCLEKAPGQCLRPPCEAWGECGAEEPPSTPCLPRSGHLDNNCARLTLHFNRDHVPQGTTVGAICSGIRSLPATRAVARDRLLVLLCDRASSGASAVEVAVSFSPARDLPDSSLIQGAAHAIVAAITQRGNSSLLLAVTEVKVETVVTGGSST
Procedure: as §1, §2

[3] = molecular target: T3, His tagged rhDLL4 (human, UniProt Q9NR61 27-524)
T3 construct: also called R&D Cat. No. 1506-D4-050
T3 sequence (Q9NR61 27-524 limits assumed): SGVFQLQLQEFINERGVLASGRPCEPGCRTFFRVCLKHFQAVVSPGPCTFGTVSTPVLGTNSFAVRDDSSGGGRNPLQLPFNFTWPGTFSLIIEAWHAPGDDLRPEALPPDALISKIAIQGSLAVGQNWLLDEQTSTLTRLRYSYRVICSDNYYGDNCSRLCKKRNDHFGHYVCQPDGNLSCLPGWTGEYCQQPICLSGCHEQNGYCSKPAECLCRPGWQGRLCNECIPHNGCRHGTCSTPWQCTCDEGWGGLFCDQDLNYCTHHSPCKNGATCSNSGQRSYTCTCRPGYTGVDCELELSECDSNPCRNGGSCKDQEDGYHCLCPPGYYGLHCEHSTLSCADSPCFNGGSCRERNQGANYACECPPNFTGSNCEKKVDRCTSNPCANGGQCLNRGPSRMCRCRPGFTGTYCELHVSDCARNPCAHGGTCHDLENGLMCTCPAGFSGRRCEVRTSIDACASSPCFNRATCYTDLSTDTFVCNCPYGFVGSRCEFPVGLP
Procedure: as §1, §2

binding result [1]: binds
binding result [2]: binds
binding result [3]: binds
B1: recombinant human Notch3 extracellular domain (containing EGF like domains 1-11) Fc fusion protein (Fc fusion, UniProt Q9UM47 40-467, looked up, not shown: a dimerising Fc or GST)
chain: APPCLDGSPCANGGRCTQLPSREAACLCPPGWVGERCQLEDPCHSGPCAGRGVCQSSVVAGTARFSCRCPRGFRGPDCSLPDPCLSSPCAHGARCSVGPDGRFLCSCPPGYQGRSCRSDVDECRVGEPCRHGGTCLNTPGSFRCQCPAGYTGPLCENPAVPCAPSPCRNGGTCRQSGDLTYDCACLPGFEGQNCEVNVDDCPGHRCLNGGTCVDGVNTYNCQCPPEWTGQFCTEDVDECQLQPNACHNGGTCFNTLGGHSCVCVNGWTGESCSQNIDDCATAVCFHGATCHDRVASFYCACPMGKTGLLCHLDDACVSNPCHEDAICDTNPVNGRAICTCPPGFTGGACDQDVDECSIGANPCEHLGRCVNTQGSFLCQCGRGYTGPRCETDVNECLSGPCRNQATCLDRIGQFTCICMAGFTGTYCE
notes: domain: EGF like domains 1-11; also called rhNotch3-Fc; rhNotch3
